For nine sequences, binding signal (z-score (mean of top ten 7-mers)) results are on record in paper PMC12990809.

Common to all, as to experiment: pulldown
One data set concerns the target T1, MBNL1 (Homo sapiens) (UniProt Q9NR56).
T1 sequence: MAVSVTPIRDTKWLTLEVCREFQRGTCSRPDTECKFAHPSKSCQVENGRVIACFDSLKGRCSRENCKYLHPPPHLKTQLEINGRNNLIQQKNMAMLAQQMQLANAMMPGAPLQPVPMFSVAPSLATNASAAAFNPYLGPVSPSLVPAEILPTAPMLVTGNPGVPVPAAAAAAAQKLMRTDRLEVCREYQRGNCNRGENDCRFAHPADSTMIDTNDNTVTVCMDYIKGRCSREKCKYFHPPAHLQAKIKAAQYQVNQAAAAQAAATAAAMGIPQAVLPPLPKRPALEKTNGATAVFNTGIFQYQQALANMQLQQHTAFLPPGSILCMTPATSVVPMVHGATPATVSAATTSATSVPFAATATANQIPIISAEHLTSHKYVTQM
The note with it: 20 nM protein, 1.5 uM RNA pool; 20 mM HEPES pH 7.8, 70 mM KCl, 10 mM NaCl, 10% glycerol, 2 mM DTT, 0.1 ug/uL BSA; 30 min, 4 C (protocol of this paper; not …); cited from earlier work.

Another data set addresses T2, FUBP1 (Homo sapiens) (UniProt A0ACI8RIE7).
T2 sequence: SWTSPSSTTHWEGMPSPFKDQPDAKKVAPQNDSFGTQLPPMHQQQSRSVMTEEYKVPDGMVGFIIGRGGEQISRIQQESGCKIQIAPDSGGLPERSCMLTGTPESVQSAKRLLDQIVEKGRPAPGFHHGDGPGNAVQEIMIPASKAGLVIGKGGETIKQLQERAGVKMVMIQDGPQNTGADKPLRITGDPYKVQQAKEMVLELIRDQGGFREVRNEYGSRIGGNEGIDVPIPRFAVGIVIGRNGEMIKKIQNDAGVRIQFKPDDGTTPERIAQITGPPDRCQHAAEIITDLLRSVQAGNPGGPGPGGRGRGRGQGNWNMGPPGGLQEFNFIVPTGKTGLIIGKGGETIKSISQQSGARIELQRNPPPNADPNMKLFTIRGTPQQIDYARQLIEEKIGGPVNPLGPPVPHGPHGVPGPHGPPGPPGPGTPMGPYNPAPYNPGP
The note with it: 20 nM protein, 1.5 uM RNA pool; 20 mM HEPES pH 7.8, 70 mM KCl, 10 mM NaCl, 10% glycerol, 2 mM DTT, 0.1 ug/uL BSA; 30 min, 4 C.

Data set [1] addresses T3, Tb927.7.2140 V21F (Trypanosoma brucei) (UniProt D6XKD1).
T3 sequence: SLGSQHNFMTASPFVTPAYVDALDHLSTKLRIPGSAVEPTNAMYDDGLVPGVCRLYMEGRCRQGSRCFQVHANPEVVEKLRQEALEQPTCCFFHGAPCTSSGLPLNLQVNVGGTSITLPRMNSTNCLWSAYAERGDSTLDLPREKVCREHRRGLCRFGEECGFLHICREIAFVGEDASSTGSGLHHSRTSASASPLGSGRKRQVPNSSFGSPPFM
The note with it: 20 nM protein, 1.5 uM RNA pool; 20 mM HEPES pH 7.8, 70 mM KCl, 10 mM NaCl, 10% glycerol, 2 mM DTT, 0.1 ug/uL BSA; 30 min, 4 C.

Data set [2] has as its target T4, SCHCODRAFT_104251 ins42_DR;V186I (Schizophyllum commune) (UniProt A0ACF2EEN8).
T4 sequence: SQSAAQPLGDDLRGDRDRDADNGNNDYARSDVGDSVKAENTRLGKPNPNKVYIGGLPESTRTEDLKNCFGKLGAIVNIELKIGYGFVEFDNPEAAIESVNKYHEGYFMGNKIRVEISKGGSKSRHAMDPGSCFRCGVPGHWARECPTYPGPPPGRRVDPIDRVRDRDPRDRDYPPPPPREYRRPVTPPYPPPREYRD
The note with it: 20 nM protein, 1.5 uM RNA pool; 20 mM HEPES pH 7.8, 70 mM KCl, 10 mM NaCl, 10% glycerol, 2 mM DTT, 0.1 ug/uL BSA; 30 min, 4 C.

Another data set concerns the target T5, tardbp (Danio rerio) (UniProt A0ACM8Q011).
T5 sequence: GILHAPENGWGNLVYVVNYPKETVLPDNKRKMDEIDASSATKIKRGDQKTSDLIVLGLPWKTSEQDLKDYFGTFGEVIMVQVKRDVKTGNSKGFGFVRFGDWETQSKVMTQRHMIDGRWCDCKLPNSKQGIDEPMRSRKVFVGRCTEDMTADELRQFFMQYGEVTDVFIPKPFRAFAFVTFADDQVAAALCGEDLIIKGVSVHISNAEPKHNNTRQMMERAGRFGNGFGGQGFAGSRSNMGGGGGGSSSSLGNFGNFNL
The note with it: 20 nM protein, 1.5 uM RNA pool; 20 mM HEPES pH 7.8, 70 mM KCl, 10 mM NaCl, 10% glycerol, 2 mM DTT, 0.1 ug/uL BSA; 30 min, 4 C.

The target of the next data set is T6, PUF60 (Homo sapiens) (UniProt Q9UHX1).
T6 sequence: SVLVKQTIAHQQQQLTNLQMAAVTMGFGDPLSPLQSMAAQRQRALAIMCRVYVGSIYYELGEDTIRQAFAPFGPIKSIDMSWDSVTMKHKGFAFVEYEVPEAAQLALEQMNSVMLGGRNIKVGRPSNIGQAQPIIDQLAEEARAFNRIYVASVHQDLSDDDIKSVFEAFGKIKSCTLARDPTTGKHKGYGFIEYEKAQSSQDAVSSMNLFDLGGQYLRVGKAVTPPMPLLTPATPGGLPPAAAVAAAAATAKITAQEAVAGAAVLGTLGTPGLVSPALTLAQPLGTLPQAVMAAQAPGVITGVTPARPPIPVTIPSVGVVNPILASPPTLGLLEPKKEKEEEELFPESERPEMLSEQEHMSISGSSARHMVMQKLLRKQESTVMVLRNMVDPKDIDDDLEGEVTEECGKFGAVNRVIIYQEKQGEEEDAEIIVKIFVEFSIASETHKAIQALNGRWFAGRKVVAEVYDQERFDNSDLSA
The note with it: 20 nM protein, 1.5 uM RNA pool; 20 mM HEPES pH 7.8, 70 mM KCl, 10 mM NaCl, 10% glycerol, 2 mM DTT, 0.1 ug/uL BSA; 30 min, 4 C.

A further data set has as its target hnrnpa0b (Danio rerio) (UniProt A0A8M1PHH6). As to conditions: 20 nM protein, 1.5 uM RNA pool; 20 mM HEPES pH 7.8, 70 mM KCl, 10 mM NaCl, 10% glycerol, 2 mM DTT, 0.1 ug/uL BSA; 30 min, 4 C.
Data set [3] concerns the target T7, NCU04254 (Neurospora crassa) (UniProt Q7S7T0).
T7 sequence: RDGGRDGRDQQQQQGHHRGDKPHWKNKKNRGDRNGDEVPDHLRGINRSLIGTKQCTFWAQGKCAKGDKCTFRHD
The note with it: 20 nM protein, 1.5 uM RNA pool; 20 mM HEPES pH 7.8, 70 mM KCl, 10 mM NaCl, 10% glycerol, 2 mM DTT, 0.1 ug/uL BSA; 30 min, 4 C.

Data set [4] addresses T8, PK21151.1 (Cannabis sativa) (UniProt A0A7J6F7E6).
T8 sequence: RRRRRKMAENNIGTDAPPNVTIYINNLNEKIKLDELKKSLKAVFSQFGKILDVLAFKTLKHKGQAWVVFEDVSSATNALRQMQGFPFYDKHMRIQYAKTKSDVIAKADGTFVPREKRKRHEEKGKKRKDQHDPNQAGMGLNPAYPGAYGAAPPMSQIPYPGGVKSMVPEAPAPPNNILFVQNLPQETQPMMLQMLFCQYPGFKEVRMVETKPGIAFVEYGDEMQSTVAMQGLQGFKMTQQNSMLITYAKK
As to conditions: 20 nM protein, 1.5 uM RNA pool; 20 mM HEPES pH 7.8, 70 mM KCl, 10 mM NaCl, 10% glycerol, 2 mM DTT, 0.1 ug/uL BSA; 30 min, 4 C.

hnrnpa0b (Danio rerio), sequence (A0A8M1PHH6 entry or part of it): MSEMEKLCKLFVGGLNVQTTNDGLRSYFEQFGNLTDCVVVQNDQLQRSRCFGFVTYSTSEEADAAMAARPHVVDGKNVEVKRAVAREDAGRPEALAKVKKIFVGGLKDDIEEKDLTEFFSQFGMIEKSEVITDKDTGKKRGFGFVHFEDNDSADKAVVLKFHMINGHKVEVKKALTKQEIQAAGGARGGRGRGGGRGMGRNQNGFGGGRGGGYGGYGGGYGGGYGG

Turning to GCUUGC [RNAcompete motif RNCMPT00038], the binding signal (z-score (mean of top ten 7-mers)) with MBNL1 (Homo sapiens) is 11.2.

Regarding AUGUAU [RNAcompete motif RNCMPT00822], the binding signal (z-score (mean of top ten 7-mers)) in the data set with FUBP1 (Homo sapiens) came out at 7.78.

Sequence AAAACG [RNAcompete motif RNCMPT00834] gave a binding signal (z-score (mean of top ten 7-mers)) in data set [1] of 26.

Sequence GACUA [RNAcompete motif RNCMPT00866] registered a binding signal (z-score (mean of top ten 7-mers)) in data set [2] of 6.58.

With UGAAUGA [RNAcompete motif RNCMPT01664], in the data set with tardbp (Danio rerio), the binding signal (z-score (mean of top ten 7-mers)) came to 9.7.

UUUUUUU [RNAcompete motif RNCMPT00820]: in the data set with PUF60 (Homo sapiens), the binding signal (z-score (mean of top ten 7-mers)) stood at 12.

In the data set with hnrnpa0b (Danio rerio), UUAGAUAG [RNAcompete motif RNCMPT01667] had a binding signal (z-score (mean of top ten 7-mers)) of 9.2.

On to GAAUGG [RNAcompete motif RNCMPT00835], for which the binding signal (z-score (mean of top ten 7-mers)) in data set [3] came out at 8.35.

UUGCACA [RNAcompete motif RNCMPT00830]: the binding signal (z-score (mean of top ten 7-mers)) in data set [4] stood at 12.4.
